Data: patent US20170233490A1 (Hoffmann-La Roche, published 2017)
“And” between values parts separate entries of the source, which are not always exact repeats. Equal values may be shown once.

Legend:
[1] = molecular target: T1, HER3 ECD-HRG complex (human, UniProt P21860 20-643); assay: SPR Biacore T100; reference: HER3-ECD without Heregulin
T1 construct: HER3 ECD preincubated with a 3- to 6-fold molar excess of Heregulin ('open' conformation); biotinylated Her3-ECD in the ribosome display; also called HER3-ECD/HRG1β
Procedure: (§1) A CM5 series sensor was mounted into the system and was normalized in HBS-ET buffer (10 mM HEPES pH 7.4, 150 mM NaCl, 3 mM EDTA, 0.005% w/v Tween 20) according to the manufacturer's instructions. The sample buffer was the system buffer supplemented with 1 mg/ml CMD (Carboxymethyldextran, Sigma #86524). The system operated at 25° C. 6500 RU RAM-Fcγ (relative units of Fcγ-fragment RamIgG, GE Healthcare) were immobilized according to the manufacturer's instructions using EDC/NHS chemistry on all four flow cells. The sensor was deactivated using 1M ethanolamine.

[2] = molecular target: T2, human HER3 Extracellular Domain (ECD) (human, UniProt P21860 20-643); assay: SPR Biacore 3000, antibody captured, 25 C
T2 construct: human recombinant, 68 kDa; 'closed' conformation without ligand; also called Her3 ECD; Her-3 ECD
Procedure: (§2) A CMS series sensor was mounted into the system and was normalized in HBS-ET buffer (10 mM HEPES pH 7.4, 150 mM NaCl, 3 mM EDTA, 0.005% w/v Tween 20) according to the manufacturer's instructions. The sample buffer was the system buffer supplemented with 1 mg/ml CMD (Carboxymethyldextran). The system operated at 25° C. 10000 RU RAM-Fcγ (relative units of Fcγ-fragment Rabbit Anti-Mouse IgG/Jackson Laboratories) were immobilized according to the manufacturer's instructions using EDC/NHS chemistry on all flow cells. The sensor was deactivated using 1M ethanolamine. Analytes in solution were injected at 100 μl/min at different concentration steps of 0 nM, 1.1 nM, 3.7 nM, 11.1 nM, 33.1 nM and 90 nM for 2 min. The dissociation was monitored for 5 min. Acidic regeneration of the sensor surface was achieved using three consecutive injections of 10 mM Glycine pH 1.7 at 30 μl/min for 60 sec. Kinetic data were evaluated according to a Langmuir fit.

[3] = molecular target: T3, TtSlyD-FKBP-Her3; assay: SPR Biacore 3000, antibody captured, 25 C
T3 construct: N-terminal Met present or not; also called thermo SlyD-Her3; ttSlyD-Her3
T3 chain: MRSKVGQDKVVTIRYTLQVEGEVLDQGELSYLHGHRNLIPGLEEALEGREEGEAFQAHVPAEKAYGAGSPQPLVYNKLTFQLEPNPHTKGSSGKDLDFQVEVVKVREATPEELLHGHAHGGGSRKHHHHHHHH
Procedure: as §2

[4] = molecular target: T1, HER3 ECD-HRG complex; assay: SPR Biacore 3000, antibody captured, 25 C
Procedure: as §2

[5] = molecular target: T2, human HER3 Extracellular Domain (ECD); assay: SPR Biacore T100, antibody captured, 25 C
Procedure: as §1
(§3) The binding activity of the respective antibody against the analytes was kinetically tested. Antibodies were captured at 35 nM concentration by a 1 min injection at 5 μl/min. The flow rate was set to 100 μl/min.
(§4) Analytes in solution were injected at different concentration steps of 0 nM, 1.1 nM, 3.7 nM, 11.1 nM, 33.1 nM and 90 nM for 3.5 min. The dissociation was monitored for 15 min. Where possible, kinetic signatures were evaluated according to a Langmuir fit.

[6] = molecular target: T4, HER4 ECD-HRG complex (human, UniProt Q15303 26-651); assay: SPR Biacore T100, antibody captured, 25 C
T4 construct: HER4 ECD preincubated with a 5-fold molar excess of Heregulin
T4 sequence 1: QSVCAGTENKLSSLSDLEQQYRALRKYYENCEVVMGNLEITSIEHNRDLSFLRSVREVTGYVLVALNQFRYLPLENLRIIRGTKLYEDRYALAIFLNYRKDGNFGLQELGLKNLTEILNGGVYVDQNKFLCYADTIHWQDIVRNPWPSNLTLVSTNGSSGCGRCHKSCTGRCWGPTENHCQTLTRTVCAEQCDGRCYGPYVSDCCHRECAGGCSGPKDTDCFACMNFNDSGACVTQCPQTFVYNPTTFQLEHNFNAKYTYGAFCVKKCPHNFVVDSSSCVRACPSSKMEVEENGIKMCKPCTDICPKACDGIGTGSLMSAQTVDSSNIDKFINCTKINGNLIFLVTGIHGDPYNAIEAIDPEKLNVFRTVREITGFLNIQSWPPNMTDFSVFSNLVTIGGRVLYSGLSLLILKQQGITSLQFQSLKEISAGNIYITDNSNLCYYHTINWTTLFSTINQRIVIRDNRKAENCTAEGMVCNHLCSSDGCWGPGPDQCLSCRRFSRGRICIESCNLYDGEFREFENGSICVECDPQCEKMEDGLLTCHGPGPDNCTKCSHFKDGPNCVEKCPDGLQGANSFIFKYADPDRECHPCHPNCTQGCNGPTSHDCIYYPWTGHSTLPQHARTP
T4 sequence 2: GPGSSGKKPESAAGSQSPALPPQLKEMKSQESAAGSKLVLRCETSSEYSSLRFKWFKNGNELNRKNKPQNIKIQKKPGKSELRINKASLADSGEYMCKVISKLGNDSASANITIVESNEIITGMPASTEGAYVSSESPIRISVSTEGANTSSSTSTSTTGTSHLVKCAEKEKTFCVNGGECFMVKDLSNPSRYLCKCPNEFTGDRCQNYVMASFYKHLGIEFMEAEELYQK
Procedure: as §1, §3, §4

[7] = molecular target: T5, human HER4 Extracellular Domain (ECD) (human, UniProt Q15303 26-651); assay: SPR Biacore T100, antibody captured, 25 C
T5 construct: also called Her4 ECD; HER4-ECD
T5 sequence: T4 sequence 1
Procedure: as §1, §3, §4

[8] = molecular target: T1, HER3 ECD-HRG complex; assay: SPR Biacore T100, antibody captured, 25 C
Procedure: as §1, §3, §4

B1: anti-HER3/HER4 antibody M-05-74 (antibody, V domains shown)
VH: QVQLQQSGAELAKPGASVKMSCKTSGYTLTDYWIHWVKQRPGQGLEWIGYINPYTGYTESNQKFKDKATLTADKSSNTAYIQLSSLTSEDSAVYYCARPYYYGDYWGQGTTLTVSS
VL: QIVLTQSPAIMSASPGERVTITCSASSSVSYMHWFQQKPGTSPKLLIYSTSNLASGVPARFSGSGSGTSYSLTISRMEAEDAATYYCQQRSSYPFTFGSGTKLEIK
notes: murine monoclonal IgG from hybridoma (supernatant or purified), bivalent; also called M-074; M-5-74
With B1 the “ratio MR (+Heregulin)/MR (-Heregulin)” value [1] was 3 fold, the “ratio ka (Her3-ECD-HRG)/ka (Her3-ECD)” value [1] was 4.85 fold and the “BL (Binding Late)” value [2] was 36 RU. For the same binder, the “MR (Molar Ratio)” value [2] was 0.2, the kon [2] was 20400 M⁻¹ s⁻¹ and the t/2-diss [2] was 28 min. For the same binder, the “BL (Binding Late)” value [3] was 68.1 RU, the “MR (Molar Ratio)” value [3] was 1.5 and the kon [3] was 87500 M⁻¹ s⁻¹. For the same binder, the t/2-diss [3] was 4.9 min, the “BL (Binding Late)” value [4] was 199 RU and the “MR (Molar Ratio)” value [4] was 0.8. For the same binder, the kon [4] was 66000 M⁻¹ s⁻¹, the t/2-diss [4] was 18 min and the “BL (Binding Late)” value [5] was 70 RU. The Kd [5] was 2.2 nM and 2 nM, the “MR (Molar Ratio)” value [5] was 0.2 and the koff [5] was 2.8e-05 s⁻¹. For the same binder, the kon [5] was 13000 M⁻¹ s⁻¹, the “BL (Binding Late)” value [6] was 349 RU and the Kd [6] was 5.2 nM and 5 nM. The “MR (Molar Ratio)” value [6] was 0.6, the koff [6] was 0.00083 s⁻¹ and the kon [6] was 160000 M⁻¹ s⁻¹. For the same binder, the “BL (Binding Late)” value [7] was 27 RU, the Kd [7] was 150 nM and the “MR (Molar Ratio)” value [7] was 0.1. For the same binder, the “BL (Binding Late)” value [8] was 160 RU, the Kd [8] was 4.2 nM and 4 nM and the “MR (Molar Ratio)” value [8] was 0.6. For the same binder, the koff [8] was 0.00027 s⁻¹ and the kon [8] was 63000 M⁻¹ s⁻¹.
